Data set [1] deals with the molecule itself. In words: SEC-MALS; purified DnaD variants; 20°C; 40 mM Tris-HCl pH 8, 500 mM NaCl, 1 mM EDTA, 20 mM imidazole, 2.5% v/v glycerol. (SEC sorts molecules by how far they enter the pores of the column.)
A further data set has as its target T1, DnaD L22A (Bacillus subtilis 168CA, UniProt P39787 1-232, L22A).
T1 sequence: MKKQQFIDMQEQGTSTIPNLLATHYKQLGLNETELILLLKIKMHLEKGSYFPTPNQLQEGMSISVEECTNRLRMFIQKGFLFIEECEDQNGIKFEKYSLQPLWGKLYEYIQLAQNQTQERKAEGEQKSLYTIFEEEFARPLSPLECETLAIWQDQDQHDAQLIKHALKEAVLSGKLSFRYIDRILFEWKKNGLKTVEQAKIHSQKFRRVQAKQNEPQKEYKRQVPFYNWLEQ
In words: fluorescence polarisation; FP: 10 mM HEPES-KOH pH 7.5, 1 mM Mg acetate, 100 mM K glutamate, 20 C, 10 min, 1.875 nM DNA; crosslinking buffer not in material. The conditions noted are these: protein: recombinant; tags: His14-SUMO tag cleaved; label: fluorescein. Background: In fluorescence polarisation assays a small probe gives low polarisation when free and higher when bound to something large.

For a further data set, the target named is T2, DnaD F6A (Bacillus subtilis 168CA, UniProt P39787 1-232, F6A).
T2 sequence: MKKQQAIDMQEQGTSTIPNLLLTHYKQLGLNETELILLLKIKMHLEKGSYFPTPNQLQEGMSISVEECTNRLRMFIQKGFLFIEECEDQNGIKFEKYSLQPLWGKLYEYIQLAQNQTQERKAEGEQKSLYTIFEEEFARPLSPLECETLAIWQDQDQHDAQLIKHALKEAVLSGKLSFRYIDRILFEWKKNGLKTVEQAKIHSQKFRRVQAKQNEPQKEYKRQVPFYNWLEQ
The experiment in a line: fluorescence polarisation; similar to WT; FP: 10 mM HEPES-KOH pH 7.5, 1 mM Mg acetate, 100 mM K glutamate, 20 C, 10 min, 1.875 nM DNA; crosslinking buffer not in material. The conditions noted are these: protein: recombinant; tags: His14-SUMO tag cleaved; chain copies: 2; label: fluorescein.

Data set [2] deals with the molecule itself. The experiment in a line: SEC; Superdex 200 Increase 10/300GL, 4°C; 40 mM Tris-HCl pH 8, 500 mM NaCl, 1 mM EDTA, 20 mM imidazole.

B1: DnaD (wild-type, Bacillus subtilis DNA replication initiation protein) (natural protein, UniProt P39787 1-232, looked up)
chain: MKKQQFIDMQEQGTSTIPNLLLTHYKQLGLNETELILLLKIKMHLEKGSYFPTPNQLQEGMSISVEECTNRLRMFIQKGFLFIEECEDQNGIKFEKYSLQPLWGKLYEYIQLAQNQTQERKAEGEQKSLYTIFEEEFARPLSPLECETLAIWQDQDQHDAQLIKHALKEAVLSGKLSFRYIDRILFEWKKNGLKTVEQAKIHSQKFRRVQAKQNEPQKEYKRQVPFYNWLEQ
notes: DnaD, Bacillus subtilis 168CA, amplified from genomic DNA; full-length protein; Tetramer by SEC-MALS and SEC; in the cryo-EM map only a dimer was seen; also called wild-type DnaD; full length DnaD; source: E. coli BL21(DE3)-pLysS, purified (HisTrap, SUMO protease digestion, reverse HisTrap)
As a reminder, the stoichiometry N is the number of molecules, sites or subunits per partner or assembly. Consider B1, for which, in data set [1], the “stoichiometry N” value is 4.
Take TTTTTTTTTTTTTTTTTTTTTTTTTTTTTTTTTTTTTTTT (ssDNA) [polyT40 (oCW837)]: the binding result in the data set with DnaD L22A is given as “no binding”.
Turning to TTTTTTTTTTTTTTTTTT (ssDNA) [polyT18 (oCW1088)], the binding result with DnaD F6A was “binds”; with DnaD L22A, “no binding”.

B2: DnaD^1-224 (truncation lacking the DnaB interaction region, the last eight residues) (domain or fragment, Bacillus subtilis, UniProt P39787 1-224, looked up)
chain: MKKQQFIDMQEQGTSTIPNLLLTHYKQLGLNETELILLLKIKMHLEKGSYFPTPNQLQEGMSISVEECTNRLRMFIQKGFLFIEECEDQNGIKFEKYSLQPLWGKLYEYIQLAQNQTQERKAEGEQKSLYTIFEEEFARPLSPLECETLAIWQDQDQHDAQLIKHALKEAVLSGKLSFRYIDRILFEWKKNGLKTVEQAKIHSQKFRRVQAKQNEPQKEYKRQV
notes: DnaD, Bacillus subtilis 168CA, residues 1-224 (lacks the last eight amino acid residues of the C-terminal tail); also called C-terminal truncation; source: E. coli BL21(DE3)-pLysS, purified (HisTrap, SUMO protease digestion, reverse HisTrap)
B2: the “stoichiometry N” value in data set [2] was 4.

B3: DnaD^1-205 (truncation lacking the entire C-terminal tail) (domain or fragment, Bacillus subtilis, UniProt P39787 1-205, looked up)
chain: MKKQQFIDMQEQGTSTIPNLLLTHYKQLGLNETELILLLKIKMHLEKGSYFPTPNQLQEGMSISVEECTNRLRMFIQKGFLFIEECEDQNGIKFEKYSLQPLWGKLYEYIQLAQNQTQERKAEGEQKSLYTIFEEEFARPLSPLECETLAIWQDQDQHDAQLIKHALKEAVLSGKLSFRYIDRILFEWKKNGLKTVEQAKIHSQK
notes: DnaD, Bacillus subtilis 168CA, residues 1-205 (entire C-terminal tail removed); also called truncation of the DnaD^CTT; source: E. coli BL21(DE3)-pLysS, purified (HisTrap, SUMO protease digestion, reverse HisTrap)
With B3, in data set [1], the “stoichiometry N” value worked out at 4.
